Test results as given in the supplement of paper PMC12667976.
± gives the standard error.

B1: library; numbered along this chain (parent)
chain: MATDAALRRLLRLHRTEIAVAVDSAFPLLHALADHDVVPEDKFQETLHLKEKEGCPQAFHALLSWLLTQDSTAILDFWRVLFKDYNLERYGRLQPILDSFPKDVDLSQPRKGRKPPAVPKALVPPPRLPTKRKASEEARAAAPAALTPRGTASPGSQLKAKPPKKPESSAEQQRLPLGNGIQTMSASVQRAVAMSSGDVPGARGAVEGILIQQVFESGGSKKCIQVGGEFYTPSKFEDSGSGKNKARSSSGPKPLVRAKGAQGAAPGGGEARLGQQGSVPAPLALPSDPQLHQKNEDECAVCRDGGELICCDGCPRAFHLACLSPPLREIPSGTWRCSSCLQATVQEVQPRAEEPRPQEPPVETPLPPGLRSAGEEVRGPPGEPLAGMDTTLVYKHLPAPPSAAPLPGLDSSALHPLLCVGPEGQQNLAPGARCGVCGDGTDVLRCTHCAAAFHWRCHFPAGTSRPGTGLRCRSCSGDVTPAPVEGVLAPSPARLAPGPAKDDTASHEPALHRDDLESLLSEHTFDGILQWAIQSMARPAAPFPS

Variants of: B1
Experiment: AIRE transcriptional activation functional score (insulin promoter-GFP; nonsense median 0, synonymous median 1) (normalised score); higher = higher AIRE activity (more reporter activation)
Settings: with insulin promoter-GFP reporter in HEK293
Description: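 Deep mutational scan of full-length human AIRE (codon-optimized cDNA, DT-POPCode NNN libraries over three regions) integrated at a Bxb1 landing pad in HEK293 cells carrying an insulin core promoter-GFP reporter at a Flp-In site. Cells were sorted for the top 10% GFP about 14 days after transfection. Variant frequency log-ratios (select vs non-select, TileSeq) were rescaled so that the nonsense median is 0 and the synonymous median is 1, then averaged over biological replicates.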

| Variant | AIRE transcriptional activation functional score |
| --- | --- |
| L516E | -0.232 ± 0.09 |
| S250V | 1.1 ± 0.27 |
| L13Q | 0.368 ± 0.3 |
| P407Y | 1.51 ± 0.077 |
| P407Q | 1.2 ± 0.15 |
| L255F | 1.43 ± 0.15 |
| L470K | 0.988 ± 0.22 |
| I211F | 0.181 ± 0.26 |
| I211P | -0.156 ± 0.096 |
| S476Q | 0.151 ± 0.11 |
| S476E | 0.948 ± 0.19 |
| P542E | 0.426 ± 0.24 |
| R303Y | 0.774 ± 0.15 |
| R303S | 0.997 ± 0.2 |
| T130W | 1.39 ± 0.29 |
| V37F | 0.178 ± 0.24 |
| L63T | -0.37 ± 0.2 |
| P233A | 1.09 ± 0.13 |
| T463H | 0.813 ± 0.078 |
| P176K | 1.33 ± 0.44 |
| P176C | 2.34 ± 0.29 |
| Y90F | 0.00136 ± 0.15 |
| Y90N | 0.194 ± 0.62 |
| S168L | 0.825 ± 0.32 |

| Variant | AIRE transcriptional activation functional score |
| --- | --- |
| S168W | 1.46 ± 0.22 |
| R174T | 0.614 ± 0.36 |
| D84F | -0.14 ± 0.21 |
| N295M | -0.37 ± 0.08 |
| N295H | 0.879 ± 0.46 |
| G440F | 1.04 ± 0.35 |
| A352L | 1.06 ± 0.21 |
| A352W | 1.31 ± 0.031 |
| P39E | 0.999 ± 0.066 |
| D297Y | 0.771 ± 0.31 |
| D297P | 1.29 ± 0.23 |
| D105C | 0.824 ± 0.051 |
| P252C | 0.763 ± 0.089 |
| D76W | 0.516 ± 0.083 |
| E207C | 0.532 ± 0.32 |
| Q290C | 0.819 ± 0.11 |
| Q290H | 0.981 ± 0.28 |
| A404Y | 1.3 ± 0.057 |
| P154Y | 1.68 ± 0.36 |
| Y394N | 0.966 ± 0.38 |
| Y394G | 0.882 ± 0.15 |
| L32Q | -0.665 ± 0.32 |
| P509R | 0.805 ± 0.16 |
| A121Q | 0.141 ± 0.53 |

| Variant | AIRE transcriptional activation functional score |
| --- | --- |
| N179T | 1.79 ± 0.58 |
| N179F | 0.503 ± 0.13 |
| V279F | 1.69 ± 0.43 |
| L327R | 1.05 ± 0.31 |
| E167K | 0.721 ± 0.74 |
| P143N | 1.32 ± 0.13 |
| Q349I | 1.05 ± 0.23 |
| R79T | -2.81 ± 0.52 |
| D198F | 0.583 ± 0.26 |
| P355D | 1.13 ± 0.15 |
| P355H | 1.08 ± 0.14 |
| P350T | 0.866 ± 0.16 |
| P350I | 1.14 ± 0.2 |
| S506H | 1.08 ± 0.091 |
| D304A | 0.858 ± 0.16 |
| P315M | 1.22 ± 0.04 |
| V192N | 0.244 ± 0.2 |
| T344F | 1.26 ± 0.16 |
| T344W | 1.1 ± 0.066 |
| S220F | 0.305 ± 0.062 |
| G486N | 0.995 ± 0.084 |
| P381D | 0.696 ± 0.43 |
| G54I | 0.416 ± 0.43 |
| T468I | 1.16 ± 0.17 |

| Variant | AIRE transcriptional activation functional score |
| --- | --- |
| T468F | 1.02 ± 0.15 |
| P539C | 0.233 ± 0.21 |
| W65K | 0.535 ± 0.13 |
| A386C | 0.57 ± 0.17 |
| A386Q | 0.654 ± 0.073 |
| L273G | 0.95 ± 0.18 |
| L273Y | 1.28 ± 0.28 |
| R190Y | 0.797 ± 0.12 |
| C472S | -0.0588 ± 0.17 |
| S248M | 1.01 ± 0.041 |
| S248I | 1.16 ± 0.17 |
| W78G | 0.214 ± 0.16 |
| A432P | 0.463 ± 0.084 |
| S196R | 1.16 ± 0.17 |
| A140Q | 0.908 ± 0.25 |
| D41V | 0.0716 ± 0.31 |
| L409A | 0.384 ± 0.081 |
| G219V | 1.14 ± 0.2 |
| G219S | 0.761 ± 0.29 |
| T391L | 1.06 ± 0.41 |
| K52M | 2.46 ± 0.48 |
| R328C | 0.932 ± 0.48 |
| E298C | -0.0529 ± 0.35 |
| E298M | 0.204 ± 0.068 |

| Variant | AIRE transcriptional activation functional score |
| --- | --- |
| R203E | -0.0204 ± 0.28 |
| R433Q | 1.13 ± 0.34 |
| R433L | 0.786 ± 0.24 |
| D503H | 0.851 ± 0.42 |
| L323N | 0.866 ± 0.47 |
| R149Q | 1.71 ± 0.2 |
| M536G | 0.186 ± 0.32 |
| M194N | 0.73 ± 0.081 |
| M194F | 0.394 ± 0.074 |
| L320P | 0.869 ± 0.25 |
| P148F | 1.53 ± 0.23 |
| A152D | 0.696 ± 0.32 |
| A152W | 1.68 ± 0.4 |
| L488Q | 0.827 ± 0.24 |
| L488S | 0.854 ± 0.22 |
| L66V | 0.121 ± 0.2 |
| L66I | 0.885 ± 0.42 |
| A403I | 1.5 ± 0.21 |
| K294M | 0.969 ± 0.25 |
| E296L | 0.781 ± 0.23 |
| P109T | 1.54 ± 0.29 |
| S217R | 0.942 ± 0.35 |
| S99K | 1.65 ± 0.14 |
| A429Y | 0.892 ± 0.44 |

| Variant | AIRE transcriptional activation functional score |
| --- | --- |
| Q534T | 1.76 ± 0.11 |
| Q534I | -0.04 ± 0.16 |
| Q534R | 0.171 ± 0.18 |
| G201W | 0.489 ± 0.033 |
| G201V | 0.941 ± 0.22 |
| Q293A | 0.738 ± 0.16 |
| L210F | 1.01 ± 0.14 |
| L520T | 0.23 ± 0.07 |
| E137H | 0.409 ± 0.23 |
| E137Q | -0.415 ± 0.88 |
| Q425N | 0.869 ± 0.12 |
| A541E | 0.858 ± 0.22 |
| A541M | 0.557 ± 0.35 |
| L392S | 1.43 ± 0.11 |
| E270T | 0.69 ± 0.38 |
| D410P | 0.93 ± 0.16 |
| K114A | -0.00452 ± 0.042 |
| E51L | 0.248 ± 0.5 |
| E375H | 1.6 ± 0.037 |
| E375Q | 1.05 ± 0.13 |
| L177Y | 1.89 ± 0.44 |
| L291W | 0.706 ± 0.12 |
| L291S | 1.1 ± 0.44 |
| V436M | 0.555 ± 0.13 |

| Variant | AIRE transcriptional activation functional score |
| --- | --- |
| E383W | 0.951 ± 0.11 |
| E307A | 0.982 ± 0.31 |
| A202L | 0.939 ± 0.17 |
| Q276N | 1.52 ± 0.29 |
| V20T | 0.0422 ± 0.34 |
| L128D | -0.0224 ± 0.18 |
| I18P | -0.146 ± 0.3 |
| I18W | 0.00284 ± 0.15 |
| E347H | 1.32 ± 0.28 |
| E347K | 1.11 ± 0.076 |
| Q358D | 0.761 ± 0.22 |
| Q358V | 1.07 ± 0.28 |
| Q358G | 1.34 ± 0.21 |
| C311F | 0.878 ± 0.1 |
| Q262D | 1.13 ± 0.15 |
| L529D | -0.829 ± 0.32 |
| T390W | 1.51 ± 0.07 |
| E485V | 0.951 ± 0.26 |
| P95D | 0.444 ± 1.1 |
| S491C | 1.29 ± 0.089 |
| S169M | 0.503 ± 0.25 |
| L87R | 1.14 ± 0.33 |
| D23I | 0.125 ± 0.62 |
